From publication PMC5586252, “PP2A-B′ holoenzyme substrate recognition, regulation and role in cytokinesis” (Cell Discovery, 2017)

System: GST-B′γ1
Assay: Titration pull-down of Cyk4 / pCyk4 by immobilized GST-B′γ1
Type: binding
Conditions: 10 μg immobilized GST-B′γ1
Procedure: Next, we thoroughly examined Cyk4 phosphorylation sites by MS and the effect of each phosphorylation on B′ binding. […] Upon phosphorylation in vitro by Plk1, the interaction can be detected with Cyk4 concentration as low as 0.6 μM and the half maximum binding can be obtained with the concentration of pCyk4 (1–177) between 2.5 and 5 μM (Figure 4d). […] No unphosphorylated CyK4 is detected (Figure 4e, left panel). The most abundant species are 2pCyk4 and 3pCyk4 that correspond to bis- and tris-phosphorylated proteoforms, respectively (Figure 4e, left panel). Further tandem MS with collision-induced dissociation (CID) and electron capture dissociation (ECD) of 4pCyk4 pinpointed the four sites that are phosphorylated, S149, S157, S164 and S170 (Figure 4e, right panel). Phosphorylation at these four sites was previously reported collectively, but not simultaneously, in different studies. […] As 5pCyk4 represents a minor species of the pCyk4 (Figure 4e, left panel), we concluded that the increase of binding affinity between B′ and pCyk4 is largely contributed by phosphorylation at S149. […] These collectively confirmed that pCyk4 interacts with PP2A-B′ holoenzymes via the identified B′-binding motif that is responsive to primarily the Plk1 phosphorylation site at S149.
Approximately 10 μg of GST-tagged B′-binding motifs or GST-pCyk4 was bound to 10 μl of glutathione resin via GST tag. […]

B1: pCyk4 (1–177): Cyk4 (1–177) phosphorylated in vitro by Plk1 (protein)
chain: GSMDTMMLNVRNLFEQLVRRVEILSEGNEVQFIQLAKDFEDFRKKWQRTDHELGKYKDLLMKAETERSALDVKLKHARNQVDVEIKRRQRAEADCEKLERQIQLIREMLMCDTSGSIQLSEEQKSALAFLNRGQPSSSNAGNKRLSTIDESGSILSDISFDKTDESLDWDSSLVKTFKL
modifications: phosphorylated by Plk1: mono- to pentakis-phosphorylated forms, no unphosphorylated form; sites of the tetrakis form S149, S157, S164 and S170; left off: GST, N-terminal, cleaved
notes: Cyk4 (1–177) phosphorylated in vitro by Plk1
concentration at which interaction with GST-B′γ1 can be detected: 0.6 µM

B2: Cyk4 (1–177): Cyk4 construct (residue 1–177) containing the coiled-coil domain and a portion of the disordered region (protein, UniProt Q9H0H5 1-177, looked up, fragment)
chain: MDTMMLNVRNLFEQLVRRVEILSEGNEVQFIQLAKDFEDFRKKWQRTDHELGKYKDLLMKAETERSALDVKLKHARNQVDVEIKRRQRAEADCEKLERQIQLIREMLMCDTSGSIQLSEEQKSALAFLNRGQPSSSNAGNKRLSTIDESGSILSDISFDKTDESLDWDSSLVKTFKL
concentration at which interaction with GST-B′γ1 can be detected: ≥ 20 µM
